Measured values reported in patent US20250145708A1 (GOOD T CELLS, published 2025).

Legend:
Assay in all cases: Lrig-1 peptide microarray (15-mers, 14 aa overlap), H6 at 1, 10 and 100 µg/ml
[1] = target: T1, Lrig-1 epitope peptide SEQ ID NO: 28
T1 peptide: FFITDVKIDDAGVYS
Protocol: (§1) Pre-staining of a Lrig-1 peptide microarray copy using secondary and control antibodies in incubation buffer was performed to identify whether they can interact with antigen-derived peptides that can interfere with the main assays. Subsequent incubation of other Lrig-1 peptide microarray copies with the H6 monoclonal antibody of Production Example 8 (1 μg/ml, 10 μg/ml, and 100 μg/ml) in incubation buffer was followed by staining with secondary and control antibodies. Read-out was performed at a scanning intensity of 7/7 (red/green) using the LI-COR Odyssey Imaging System. Quantification of spot intensities and peptide annotation were based on the 16-bit gray scale tiff files. Microarray image analysis was done with PepSlide® Analyzer.

[2] = target: T2, Lrig-1 epitope peptide SEQ ID NO: 26
T2 peptide: RLTVNVLPSFTKTPH
Protocol: as §1

[3] = target: T3, Lrig-1 epitope peptide SEQ ID NO: 27
T3 peptide: RRMHVMPDDDVFF
Protocol: as §1

[4] = target: T4, Lrig-1 epitope peptide SEQ ID NO: 21
T4 peptide: DLNRNRIRLIEGLTF
Protocol: as §1

[5] = target: T5, Lrig-1 epitope peptide SEQ ID NO: 25
T5 peptide: FGHEGRYQCVITNHF
Protocol: as §1

[6] = target: T6, Lrig-1 epitope peptide SEQ ID NO: 20
T6 peptide: RLTQLDLNRNRIR
Protocol: as §1

[7] = target: T7, Lrig-1 epitope peptide SEQ ID NO: 22
T7 peptide: NSIARIHRKGW
Protocol: as §1

[8] = target: T8, Lrig-1 epitope peptide SEQ ID NO: 18
T8 construct: it was not itself a separately tested peptide
T8 peptide: WTRSLNLSYNKL
Protocol: as §1

[9] = target: T9, Lrig-1 epitope peptide SEQ ID NO: 24
T9 peptide: RQVTFGHEGRY
Protocol: as §1

[10] = target: T10, Lrig-1 epitope peptide SEQ ID NO: 19
T10 peptide: TEVRNTCFPHGPPI
Protocol: as §1

[11] = target: T11, Lrig-1 epitope peptide SEQ ID NO: 23
T11 peptide: WLPPWLIGRMLQAF
Protocol: as §1

binding result [1]: binds
binding result [2]: binds
binding result [3]: binds
binding result [4]: binds
binding result [5]: binds
binding result [6]: binds
binding result [7]: binds
binding result [8]: binds
binding result [9]: binds
binding result [10]: binds
binding result [11]: binds
B1: H6 clone monoclonal antibody (Production Example 8) (antibody, mouse IgG2a, V domains shown)
VH: EVQLLESGGGLVQPGGSLRLSCAASGFTFSNYAMSWVRQAPGKGLEWVSVISHGGGSTYYADSVKGRFTISRDNSKNTLYLQMNSLRAEDTAVYYCARVISNCHLGVCYYSNGMDVWGQGTLVTVSS
VL: QSVLTQPPSASGTPGQRVTISCSGSSSNIGNNDVYWYQQLPGTAPKLLIYSDSQRPSGVPDRFSGSKSGTSASLAISGLRSEDEADYYCGTWDYSLSGYVFGGGTKLTVLR
notes: also called H6 monoclonal antibody
